Consider 8 molecules from patent publication US20240301064A1 (published 2024).

In test [1] the target is PD-1 on PD-1 reporter Jurkat cells. In words: cell-based or functional assay.
The next test has as its target T1, mouse PD-1 (mouse, UniProt Q02242 25-167, limits assumed).
T1 sequence (looked up): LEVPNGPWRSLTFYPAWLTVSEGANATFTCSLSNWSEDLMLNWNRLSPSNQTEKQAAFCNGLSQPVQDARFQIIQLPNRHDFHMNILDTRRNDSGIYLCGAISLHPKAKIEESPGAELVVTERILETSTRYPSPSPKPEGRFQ
In words: BLI, antibody on AHC tip.

Another test addresses T2, cynomolgus PD-1 (cynomolgus).
T2 construct: also called cyno PD-1
In words: BLI, antibody on AHC tip, soluble PD-1.

The target of test [2] is T3, human PD-1 (human, UniProt Q15116 25-167, limits assumed).
T3 construct: also called huPD-1
In words: BLI, antibody on AHC tip, soluble PD-1.

Test [3] concerns the target T4, human MAdCAM (human, UniProt Q13477 19-317, limits assumed).
T4 construct: also called huMAdCAM
T4 sequence (looked up): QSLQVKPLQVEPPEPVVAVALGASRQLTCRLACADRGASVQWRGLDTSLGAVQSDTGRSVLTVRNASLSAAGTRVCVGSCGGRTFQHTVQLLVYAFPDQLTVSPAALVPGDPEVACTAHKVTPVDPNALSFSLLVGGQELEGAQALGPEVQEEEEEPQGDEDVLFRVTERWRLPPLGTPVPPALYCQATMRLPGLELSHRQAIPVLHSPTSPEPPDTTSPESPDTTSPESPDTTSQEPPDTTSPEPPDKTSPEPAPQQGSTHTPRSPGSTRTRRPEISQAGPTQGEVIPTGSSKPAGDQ
In words: BLI, antibody on AHC tip, soluble MAdCAM. The method, then:
(§1) Anti-human IgG Fc (AHC) biosensors were equilibrated in assay buffer for 20 minutes. Test article was diluted to 10 μg/mL in assay buffer (lx PBS, 1% BSA, 0.05% Tween20). A seven-point serial dilution of human and cynomolgus PD-1 or human, cynomolgus and mouse MAdCAM was prepared in assay buffer, starting at 1000 nM down to 15.625 nM. For PD-1 binding, test article was loaded on tips for 180 s followed by a 180 s association phase with PD-1 and 240 s dissociation phase in assay buffer. For MAdCAM binding, test article was loaded on tips for 180 s followed by a 120 s association phase with MAdCAM and 180 s dissociation phase in assay buffer. […] Accordingly, PMAB65 binds human, cyno, and mouse PD-1 and MAdCAM.

The target of another test is T5, cynomolgus MAdCAM (cynomolgus).
T5 chain: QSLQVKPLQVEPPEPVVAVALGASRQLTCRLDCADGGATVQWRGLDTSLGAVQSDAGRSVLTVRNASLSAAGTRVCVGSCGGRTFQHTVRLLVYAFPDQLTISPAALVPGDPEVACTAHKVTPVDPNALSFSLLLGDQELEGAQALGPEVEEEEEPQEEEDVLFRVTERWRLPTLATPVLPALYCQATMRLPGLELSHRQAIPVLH
In words: BLI, antibody on AHC tip, soluble MAdCAM. As to the method:
as §1

Another test concerns the target T6, mouse MAdCAM (mouse, UniProt Q61826 22-364).
T6 sequence (looked up): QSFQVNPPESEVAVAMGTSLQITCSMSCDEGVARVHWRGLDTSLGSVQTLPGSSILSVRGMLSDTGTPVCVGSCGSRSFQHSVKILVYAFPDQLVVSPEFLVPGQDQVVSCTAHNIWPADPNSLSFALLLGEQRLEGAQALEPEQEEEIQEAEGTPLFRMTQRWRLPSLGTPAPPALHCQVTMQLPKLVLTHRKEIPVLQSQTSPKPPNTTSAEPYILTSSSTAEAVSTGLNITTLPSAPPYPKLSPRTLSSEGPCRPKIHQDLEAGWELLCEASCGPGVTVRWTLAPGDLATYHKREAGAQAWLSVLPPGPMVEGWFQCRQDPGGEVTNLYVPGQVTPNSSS
In words: BLI, antibody on AHC tip, soluble MAdCAM. As to the method:
as §1

The target in test [4] is T3, human PD-1. In words: BLI, antibody on AHC tip.
The target in test [5] is T4, human MAdCAM. In words: BLI Octet. The method, then:
(§2) Anti-human Fc biosensors were equilibrated in assay buffer (1% BSA in 1×PBS with 0.05% Tween-20) for 10 minutes before the experiment was set-up. Test articles were diluted to 5 μg/mL in assay buffer and 200 μL pipetted to 96 well plate. Human MAdCAM was titrated down, two-fold dilutions (starting at 600 nM as the highest concentration, 7-point dilution). Experiment was run using data acquisition software version 10.0 for OCTET96 RED. Test articles were captured using anti-human Fc biosensors for 180 s. Biosensors loaded with test articles were then equilibrated in assay buffer for 120 s. Association was performed in wells with huMAdCAM for 180 seconds. Dissociation was performed in wells with assay buffer for 180 s. Kinetic parameters (kon and kdis) and dissociation constant (KD) were calculated from a 1:1 global fit model using the data analysis software of the Octet96 RED software version 10.

Test [6] addresses T4, human MAdCAM. In words: BLI Octet, against PRNT1. As to the method:
as §2

Substitutions are numbered along the chain they refer to.

T3 sequence (Q15116 25-167 limits assumed): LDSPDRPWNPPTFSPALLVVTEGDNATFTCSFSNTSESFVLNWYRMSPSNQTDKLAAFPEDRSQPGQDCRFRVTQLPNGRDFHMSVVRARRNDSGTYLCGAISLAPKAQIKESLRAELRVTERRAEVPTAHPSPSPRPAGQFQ

B1: PMAB61 (bispecific antibody, human IgG1, kappa)
heavy: EVQLVQSGAEVKKPGASVKVSCKASGYSFTSYYMHWVRQAPGQGLEWMGIINPSGGSTSYAQKFQGRVTMTRDTSTSTVYMELSSLRSEDTAVYYCASGWVYWGQGTLVTVSSASTKGPSVFPLAPSSKSTSGGTAALGCLVKDYFPEPVTVSWNSGALTSGVHTFPAVLQSSGLYSLSSVVTVPSSSLGTQTYICNVNHKPSNTKVDKKVEPKSCDKTHTCPPCPAPEAAGAPSVFLFPPKPKDTLMISRTPEVTCVVVDVSHEDPEVKFNWYVDGVEVHNAKTKPREEQYNSTYRVVSVLTVLHQDWLNGKEYKCKVSNKALPAPIEKTISKAKGQPREPQVYTLPPSREEMTKNQVSLTCLVKGFYPSDIAVEWESNGQPENNYKTTPPVLDSDGSFFLYSKLTVDKSRWQQGNVFSCSVMHEALHNHYTQKSLSLSPGGGGGSGGGGSGGGGSEVQLLESGGGLVQPGGSLRLSCAASGFTFSSYWMHWVRQAPGKGLEWVSYISGSGGYTNYADSVKGRFTISRDNSKNTLYLQMNSLRAEDTAVYYCARDRPYYYDMDVWGKGTTVTVSSGGGGSGGGGSGGGGSGGGGSDIQMTQSPSSLSASVGDRVTITCRASQSISSSLAWYQQKPGKAPKLLIYAASSLQSGVPSRFSGSGSGTDFTLTISSLQPEDFATYYCQQYKSYPVTFGQGTKVEIK
light: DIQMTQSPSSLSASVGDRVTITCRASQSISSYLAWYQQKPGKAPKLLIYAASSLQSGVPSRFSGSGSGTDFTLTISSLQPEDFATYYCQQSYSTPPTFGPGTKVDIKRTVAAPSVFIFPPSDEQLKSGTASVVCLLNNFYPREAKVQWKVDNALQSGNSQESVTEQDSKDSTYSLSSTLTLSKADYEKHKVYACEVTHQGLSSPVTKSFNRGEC
Regarding B1, in test [1], the “PD-1 reporter Jurkat cells on test-article-loaded MAdCAM-expressing CHO cells; EC50” value amounted to 3.02 nM and the “SHP-2 recruitment, Ig-tethered test article, PD-1 reporter Jurkat cells; EC50 (second experiment)” value came to 4.45 nM.

B2: PMAB65 (bispecific antibody, human IgG1, kappa)
heavy: EVQLLESGGGLVQPGGSLRLSCAASGFTFSSYDMSWVRQAPGKGLEWVSGITISGGSTYYADSVKGRFTISRDNSKNTLYLQMNSLRAEDTAVYYCARGRGGSGWLDYWGQGTTVTVSSASTKGPSVFPLAPSSKSTSGGTAALGCLVKDYFPEPVTVSWNSGALTSGVHTFPAVLQSSGLYSLSSVVTVPSSSLGTQTYICNVNHKPSNTKVDKKVEPKSCDKTHTCPPCPAPEAAGAPSVFLFPPKPKDTLMISRTPEVTCVVVDVSHEDPEVKFNWYVDGVEVHNAKTKPREEQYNSTYRVVSVLTVLHQDWLNGKEYKCKVSNKALPAPIEKTISKAKGQPREPQVYTLPPSREEMTKNQVSLTCLVKGFYPSDIAVEWESNGQPENNYKTTPPVLDSDGSFFLYSKLTVDKSRWQQGNVFSCSVMHEALHNHYTQKSLSLSPGGGGGSGGGGSGGGGSEVQLLESGGGLVQPGGSLRLSCAASGFTFSSYWMHWVRQAPGKGLEWVSYISGSGGYTNYADSVKGRFTISRDNSKNTLYLQMNSLRAEDTAVYYCARDRPYYYDMDVWGKGTTVTVSSGGGGSGGGGSGGGGSGGGGSDIQMTQSPSSLSASVGDRVTITCRASQSISSSLAWYQQKPGKAPKLLIYAASSLQSGVPSRFSGSGSGTDFTLTISSLQPEDFATYYCQQYKSYPVTFGQGTKVEIK
light: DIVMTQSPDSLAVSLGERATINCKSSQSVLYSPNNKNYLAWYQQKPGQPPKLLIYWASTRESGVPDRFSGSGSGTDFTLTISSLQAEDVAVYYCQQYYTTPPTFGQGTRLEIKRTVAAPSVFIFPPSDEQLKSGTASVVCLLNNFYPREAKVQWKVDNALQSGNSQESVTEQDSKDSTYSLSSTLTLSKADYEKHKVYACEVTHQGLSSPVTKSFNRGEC
B2: the binding result in the test with mouse PD-1 is “no binding”. Also, the Kd amounted to 30.3 nM with cynomolgus PD-1; 32.6 nM with human PD-1 [2]; 75.5 nM with human MAdCAM [3]; 24.3 nM in the test with cynomolgus MAdCAM; 269 nM in the test with mouse MAdCAM. Besides, the “PD-1 reporter Jurkat cells on test-article-loaded MAdCAM-expressing CHO cells; EC50” value in test [1] stood at 0.78 nM. Also, the “SHP-2 recruitment, Ig-tethered test article, PD-1 reporter Jurkat cells; EC50” value in [1] was 3.04 nM.

B3: PMAB184 (bispecific antibody, human IgG1, kappa)
heavy: EVQLLESGGGLVQPGGSLRLSCAASGFTFSSYDMSWVRQAPGKGLEWVSAISGSGGSTYYADSVKGRFTISRDNSKNTLYLQMNSLRAEDTAVYYCARGRGGSGWLDYWGQGTLVTVSSASTKGPSVFPLAPSSKSTSGGTAALGCLVKDYFPEPVTVSWNSGALTSGVHTFPAVLQSSGLYSLSSVVTVPSSSLGTQTYICNVNHKPSNTKVDKKVEPKSCDKTHTCPPCPAPEAAGAPSVFLFPPKPKDTLMISRTPEVTCVVVDVSHEDPEVKFNWYVDGVEVHNAKTKPREEQYNSTYRVVSVLTVLHQDWLNGKEYKCKVSNKALPAPIEKTISKAKGQPREPQVYTLPPSREEMTKNQVSLTCLVKGFYPSDIAVEWESNGQPENNYKTTPPVLDSDGSFFLYSKLTVDKSRWQQGNVFSCSVMHEALHNHYTQKSLSLSPGGGGGSGGGGSGGGGSEVQLLESGGGLVQPGGSLRLSCAASGFTFSDFWMHWVRQAPGKGLEWISYISGDSGYTNYADSVKGRFTISRDNSKNTLYLQMNSLRAEDTAVYYCARDRPYYYYMDVWGKGTTVTVSSGGGGSGGGGSGGGGSGGGGSDIQMTQSPSSLSASVGDRVTITCRASQSVSRSLAWYQQKPGKAPKLLIYAASSLQSGVPSRFSGSGSGTDFTLTISSLQPEDFATYYCQQYKSYPVTFGQGTKVEIK
light: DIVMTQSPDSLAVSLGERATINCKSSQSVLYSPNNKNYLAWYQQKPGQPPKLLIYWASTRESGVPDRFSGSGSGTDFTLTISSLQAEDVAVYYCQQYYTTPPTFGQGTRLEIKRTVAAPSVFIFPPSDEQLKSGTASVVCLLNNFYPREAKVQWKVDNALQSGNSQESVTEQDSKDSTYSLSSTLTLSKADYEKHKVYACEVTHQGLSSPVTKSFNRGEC
In the case of B3, the binding result with human PD-1 [4] is “no binding (tested: 1000 nM)”.

B4: PMAB182 (bispecific antibody, human IgG1, kappa)
heavy: B3 heavy with D33A, A50G
light: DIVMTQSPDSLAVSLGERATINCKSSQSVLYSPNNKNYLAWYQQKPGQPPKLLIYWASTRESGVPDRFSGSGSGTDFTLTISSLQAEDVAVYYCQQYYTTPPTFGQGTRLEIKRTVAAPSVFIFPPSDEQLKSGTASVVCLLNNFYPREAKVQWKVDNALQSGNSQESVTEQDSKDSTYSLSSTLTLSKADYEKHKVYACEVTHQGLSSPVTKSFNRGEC
B4: the binding result with human PD-1 [4] is listed as “no binding (tested: 1000 nM)”.

B5: MIAB169 (antibody, human IgG1, kappa)
heavy: EVQLLESGGGLVQPGGSLRLSCAASGFTFSDFWMHWVRQAPGKGLEWISYISGDSGYTNYADSVKGRFTISRDNSKNTLYLQMNSLRAEDTAVYYCARDRPYYYIMDVWGKGTTVTVSSASTKGPSVFPLAPSSKSTSGGTAALGCLVKDYFPEPVTVSWNSGALTSGVHTFPAVLQSSGLYSLSSVVTVPSSSLGTQTYICNVNHKPSNTKVDKKVEPKSCDKTHTCPPCPAPEAAGAPSVFLFPPKPKDTLMISRTPEVTCVVVDVSHEDPEVKFNWYVDGVEVHNAKTKPREEQYNSTYRVVSVLTVLHQDWLNGKEYKCKVSNKALPAPIEKTISKAKGQPREPQVYTLPPSREEMTKNQVSLTCLVKGFYPSDIAVEWESNGQPENNYKTTPPVLDSDGSFFLYSKLTVDKSRWQQGNVFSCSVMHEALHNHYTQKSLSLSPGGGGGSAPTSSSTKKTQLQLEHLLLDLQMILNGINNYKNPKLTRMLTFKFYMPKKATELKHLQCLEEELKPLEEALNLAPSKNFHLRPRDLISDINVIVLELKGSETTFMCEYADETATIVEFINRWITFSQSIISTLT
light: DIQMTQSPSSLSASVGDRVTITCRASQSVSRSLAWYQQKPGKAPKLLIYAASSLQSGVPSRFSGSGSGTDFTLTISSLQPEDFATYYCQQYKSYPVTFGQGTKVEIKRTVAAPSVFIFPPSDEQLKSGTASVVCLLNNFYPREAKVQWKVDNALQSGNSQESVTEQDSKDSTYSLSSTLTLSKADYEKHKVYACEVTHQGLSSPVTKSFNRGEC
notes: also called MIAB169-CHO; MIAB169-HEK
Turning to B5, in the test with human MAdCAM [5], the “fold lower affinity than parent PRNT1” value is 10 fold.

B6: MIAB182 (antibody, human IgG1, kappa)
heavy: B5 heavy with D31S, F32Y, I48V, Y50A, D54S, S55G, Y57S, N59Y, I105Y
light: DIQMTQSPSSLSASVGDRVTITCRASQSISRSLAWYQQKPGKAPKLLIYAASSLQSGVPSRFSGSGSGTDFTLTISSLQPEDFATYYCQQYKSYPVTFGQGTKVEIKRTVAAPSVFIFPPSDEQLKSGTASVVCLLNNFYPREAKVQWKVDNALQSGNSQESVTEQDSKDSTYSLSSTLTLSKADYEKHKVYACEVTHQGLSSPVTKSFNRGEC
notes: also called MIAB182-001
In the case of B6, the “fold reduction of MAdCAM affinity” value with human MAdCAM [6] worked out at 10 fold.

B7: MIAB183 (antibody, human IgG1, kappa)
heavy: B5 heavy with D31S, F32Y, I48V, Y50A, D54S, S55G, Y57S, N59Y, I105Y
light: B5 light with R31S
notes: also called MIAB183-001
Regarding B7, the “fold reduction of MAdCAM affinity” value with human MAdCAM [6] amounted to 20 fold.

B8: MIAB184 (antibody, human IgG1, kappa)
heavy: B5 heavy with D31S, F32Y, I48V, Y50A, D54S, S55G, Y57S, N59Y, I105Y
light: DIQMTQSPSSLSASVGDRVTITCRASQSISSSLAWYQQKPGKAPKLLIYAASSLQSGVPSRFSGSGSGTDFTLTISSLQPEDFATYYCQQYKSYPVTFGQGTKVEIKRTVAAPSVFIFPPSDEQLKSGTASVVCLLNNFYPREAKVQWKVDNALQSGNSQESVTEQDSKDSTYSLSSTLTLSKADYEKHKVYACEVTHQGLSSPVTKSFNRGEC
notes: also called MIAB184-001
On to B8, for which the “fold reduction of MAdCAM affinity” value with human MAdCAM [6] came to 40 fold.
